Results taken from US6924412.

Molecular target: murine dimeric IgA (mouse) (UniProt P01592)
Experiment: cell-based or functional assay

Chain of UniProt P01592 (P01592 22-159): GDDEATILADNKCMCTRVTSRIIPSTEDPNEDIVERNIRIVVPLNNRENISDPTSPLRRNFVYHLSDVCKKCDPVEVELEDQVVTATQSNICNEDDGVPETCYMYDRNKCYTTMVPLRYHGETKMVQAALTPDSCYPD

total IgA concentration in milk by ELISA, transgenic line 3644 (270-fold increased SC); control mean 292 mg/ml: 593
total IgA level in milk by ELISA, transgenic line 3646 (60-fold elevated SC) against control mice: 1.5 times
Substance: murine polymeric immunoglobulin receptor (from UniProt O70570 19-771)
